Experimental data published in patent US6881547B1, “Methods and reagents for treating autoimmune disorders” (priority 2001, dated 2005).

Tests used:
[1] = system: 22-25-kDa conformers of the native human α3(IV)NC1 domain
[2] = system: rMBPΔII, recombinant 18.5 kDa human myelin basic protein
[3] = system: T1, FLAG-tagged recombinant GPBP (rGPBP)
T1 sequence: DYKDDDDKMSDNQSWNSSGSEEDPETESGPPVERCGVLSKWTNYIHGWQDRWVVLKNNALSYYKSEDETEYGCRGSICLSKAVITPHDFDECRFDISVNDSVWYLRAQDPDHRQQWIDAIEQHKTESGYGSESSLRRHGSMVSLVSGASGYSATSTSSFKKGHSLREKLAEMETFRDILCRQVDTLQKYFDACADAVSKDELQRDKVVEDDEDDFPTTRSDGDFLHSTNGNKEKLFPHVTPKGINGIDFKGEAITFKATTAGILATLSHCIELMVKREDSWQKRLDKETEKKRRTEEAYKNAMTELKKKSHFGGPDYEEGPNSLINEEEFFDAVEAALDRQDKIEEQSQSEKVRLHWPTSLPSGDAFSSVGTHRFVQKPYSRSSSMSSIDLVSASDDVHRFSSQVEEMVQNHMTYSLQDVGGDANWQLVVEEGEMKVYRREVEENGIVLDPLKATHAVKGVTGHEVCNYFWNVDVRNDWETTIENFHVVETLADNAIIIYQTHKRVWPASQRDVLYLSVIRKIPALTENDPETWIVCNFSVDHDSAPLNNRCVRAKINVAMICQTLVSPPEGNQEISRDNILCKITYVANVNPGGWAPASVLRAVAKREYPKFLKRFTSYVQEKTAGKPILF

[4] = target: rMBP, recombinant 21 kDa human myelin basic protein (UniProt P02686)
[5] = system: prokaryotic human recombinant α3(IV)NC1
[6] = system: 27-kDa conformer of the native human α3(IV)NC1 domain
[7] = target: T2, rMBP, recombinant 21 kDa human myelin basic protein, P02686
T2 chain: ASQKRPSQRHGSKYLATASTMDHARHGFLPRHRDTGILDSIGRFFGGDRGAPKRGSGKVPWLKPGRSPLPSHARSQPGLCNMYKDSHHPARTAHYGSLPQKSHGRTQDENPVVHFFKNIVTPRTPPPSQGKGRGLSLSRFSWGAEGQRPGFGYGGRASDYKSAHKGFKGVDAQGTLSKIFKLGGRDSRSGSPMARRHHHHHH

[8] = target: T3, native bovine α3(IV)NC1 domain (bovine GP antigen), Q28084
T3 chain: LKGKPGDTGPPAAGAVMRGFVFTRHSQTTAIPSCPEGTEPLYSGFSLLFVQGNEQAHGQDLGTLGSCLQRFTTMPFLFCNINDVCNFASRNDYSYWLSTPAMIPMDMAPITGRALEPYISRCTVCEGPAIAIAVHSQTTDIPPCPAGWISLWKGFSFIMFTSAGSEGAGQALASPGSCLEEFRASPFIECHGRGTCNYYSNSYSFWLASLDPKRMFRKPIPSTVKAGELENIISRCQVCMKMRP

[9] = target: T4, prokaryotic human recombinant α3(IV)NC1
T4 chain: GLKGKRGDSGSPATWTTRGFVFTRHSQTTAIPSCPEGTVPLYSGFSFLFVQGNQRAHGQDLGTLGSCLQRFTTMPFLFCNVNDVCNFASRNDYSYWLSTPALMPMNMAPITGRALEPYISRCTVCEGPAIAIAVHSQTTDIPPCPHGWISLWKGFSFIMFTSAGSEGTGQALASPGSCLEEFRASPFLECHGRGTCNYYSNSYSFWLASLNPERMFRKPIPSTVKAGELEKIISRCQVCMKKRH

GPpep1 = target: T5, GPpep1
T5 chain: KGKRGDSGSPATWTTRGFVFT

[10] = target: T6, alkaline phosphatase-treated fα3
T6 chain: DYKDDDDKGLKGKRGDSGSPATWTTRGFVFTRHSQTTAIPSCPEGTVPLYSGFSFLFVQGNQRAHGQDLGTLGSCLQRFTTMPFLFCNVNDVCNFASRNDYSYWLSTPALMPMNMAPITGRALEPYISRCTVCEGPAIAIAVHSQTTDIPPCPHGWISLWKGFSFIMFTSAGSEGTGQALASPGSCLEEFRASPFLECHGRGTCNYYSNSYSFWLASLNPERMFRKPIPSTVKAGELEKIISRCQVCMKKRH

GPpep1Ala^9 = target: T7, GPpep1Ala^9
T7 chain: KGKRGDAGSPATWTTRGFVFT

[11] = target: T8, native human α3(IV)NC1 domain (GP antigen) from renal cortex, monomer fraction of the hexamer
T8 chain: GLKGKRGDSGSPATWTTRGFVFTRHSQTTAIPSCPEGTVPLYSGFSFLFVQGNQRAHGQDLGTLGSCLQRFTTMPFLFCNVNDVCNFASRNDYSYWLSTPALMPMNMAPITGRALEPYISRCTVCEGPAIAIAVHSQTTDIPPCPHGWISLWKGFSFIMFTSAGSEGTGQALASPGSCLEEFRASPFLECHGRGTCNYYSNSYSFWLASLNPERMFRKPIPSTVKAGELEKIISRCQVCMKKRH

[12] = target: T9, Human recombinant GP antigen (rGP) produced in 293 cells
T9 chain: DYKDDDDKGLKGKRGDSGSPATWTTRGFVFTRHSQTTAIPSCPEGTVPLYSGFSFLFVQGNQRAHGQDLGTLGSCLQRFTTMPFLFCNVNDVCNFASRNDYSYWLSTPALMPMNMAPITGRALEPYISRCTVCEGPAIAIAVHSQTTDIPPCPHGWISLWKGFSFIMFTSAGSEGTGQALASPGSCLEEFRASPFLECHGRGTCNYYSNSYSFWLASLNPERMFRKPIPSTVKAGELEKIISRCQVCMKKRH

[13] = target: T10, rMBPΔII, recombinant 18.5 kDa human myelin basic protein
T10 chain: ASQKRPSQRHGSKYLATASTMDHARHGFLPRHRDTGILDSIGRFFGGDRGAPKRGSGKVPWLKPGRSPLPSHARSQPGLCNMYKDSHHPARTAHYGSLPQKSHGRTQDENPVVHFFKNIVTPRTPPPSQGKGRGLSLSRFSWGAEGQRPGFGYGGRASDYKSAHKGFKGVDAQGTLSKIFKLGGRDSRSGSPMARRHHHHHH

[14] = target: T11, β-galactosidase-derived fusion protein of clone HeLa1 containing the N-terminal 150 residues of GPBP (human, UniProt Q5R6M6 1-150 (Pongo abelii entry)); assay: filter screen of λ-gt11 expression libraries with GPpep1, detected with M3/1A
T11 construct: also called HeLa1 fusion protein; not shown: β-galactosidase part of the λ-gt11 fusion
T11 sequence: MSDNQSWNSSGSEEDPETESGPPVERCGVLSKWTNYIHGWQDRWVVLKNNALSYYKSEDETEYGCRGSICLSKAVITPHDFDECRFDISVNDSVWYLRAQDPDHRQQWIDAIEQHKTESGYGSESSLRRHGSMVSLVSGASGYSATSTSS
Procedure: Isolation and characterization of cDNA clones encoding human GPBP-Several human λ-gt11 cDNA expression libraries (eye, fetal and adult lung, kidney and HeLa S3, from CLONTECH) were probed for cDNAs encoding proteins interacting with GPpep1. Nitrocellulose filters (Millipore) prepared following standard immunoscreening procedures were blocked and incubated with 1–10 nmoles per ml of GPpep1 at 37° C. Specifically bound GPpep1 was detected using M3/1A monoclonal antibodies (7). A single clone was identified in the HeLa-derived library (HeLa1). Specificity of fusion protein binding was confirmed by similar binding to recombinant eukaryotic human GP antigen. The EcoRI cDNA insert of HeLa1 (0.5-kb) was used to further screen the same library and to isolate overlapping cDNAs. The largest cDNA (2.4-kb) containing the entire cDNA of HeLa1 (n4') was fully sequenced.

[15] = target: T12, FLAG-tagged recombinant GPBP (rGPBP) (human, UniProt Q9Y5P4 1-624, phosphoserine, phosphothreonine and phosphotyrosine present, sites not given); assay: far-Western on in-blot renatured human monomers, 30 ng/µl recombinant GPBP, Mab14 detection
T12 construct: Made in Pichia pastoris or 293 cells; also called FLAG-n4′
T12 sequence: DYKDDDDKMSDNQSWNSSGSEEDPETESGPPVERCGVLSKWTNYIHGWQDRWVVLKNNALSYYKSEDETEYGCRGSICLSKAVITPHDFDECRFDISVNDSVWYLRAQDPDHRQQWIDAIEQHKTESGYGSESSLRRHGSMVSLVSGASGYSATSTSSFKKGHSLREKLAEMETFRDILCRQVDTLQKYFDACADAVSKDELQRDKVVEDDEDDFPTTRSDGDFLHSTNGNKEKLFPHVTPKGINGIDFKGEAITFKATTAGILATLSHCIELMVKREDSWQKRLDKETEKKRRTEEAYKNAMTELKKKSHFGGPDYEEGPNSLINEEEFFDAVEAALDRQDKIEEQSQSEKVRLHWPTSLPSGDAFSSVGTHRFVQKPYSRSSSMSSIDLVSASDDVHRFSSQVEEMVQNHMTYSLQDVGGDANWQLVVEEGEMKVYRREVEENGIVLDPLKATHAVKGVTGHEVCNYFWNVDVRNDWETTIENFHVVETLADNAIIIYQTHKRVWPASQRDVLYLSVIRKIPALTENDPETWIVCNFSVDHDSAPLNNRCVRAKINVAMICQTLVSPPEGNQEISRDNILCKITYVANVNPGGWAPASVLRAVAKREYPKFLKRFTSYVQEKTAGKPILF
Procedure: Physical, chemical and immunochemical methods. Lnunoblot studies were performed as described in Example 4. For far-Western, after protein transfer the membrane was blocked with non-fat milk, incubated with 30 ng/μl of fα3 or recombinant GPBP and the bound recombinant material detected with α-FLAG or Mab14, respectively.

rGPΔIII/IV/V, sequence (chain, as listed by the source mutant): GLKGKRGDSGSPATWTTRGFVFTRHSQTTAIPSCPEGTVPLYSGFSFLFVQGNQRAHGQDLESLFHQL
rGPΔIII, sequence (chain, as listed by the source mutant): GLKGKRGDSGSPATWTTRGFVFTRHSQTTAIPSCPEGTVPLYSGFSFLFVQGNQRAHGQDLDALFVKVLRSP
rGPΔV, sequence (chain, as listed by the source mutant): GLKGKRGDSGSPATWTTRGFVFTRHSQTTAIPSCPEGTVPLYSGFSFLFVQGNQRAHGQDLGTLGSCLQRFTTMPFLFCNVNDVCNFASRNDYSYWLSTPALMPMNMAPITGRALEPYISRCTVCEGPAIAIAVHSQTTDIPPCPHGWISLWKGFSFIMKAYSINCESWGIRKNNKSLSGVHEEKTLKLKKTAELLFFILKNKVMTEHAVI

For “catalytic subunit of the cAMP-dependent protein kinase”, the “^32P incorporation, phosphorylation by PKA” value (from here on “^32P incorporation … by PKA”) (rGPΔIII) was “The alternative forms incorporated ^32P more efficiently than the primary GP antigen”, the “^32P incorporation … by PKA” value [1] was “when the ATP concentration was lowered to extracellular-like concentrations (0.15 mM), the 22-kDa conformer was preferentially labeled” and the “^32P incorporation … by PKA” value (rGPΔV) was “The alternative forms incorporated ^32P more efficiently than the primary GP antigen”. The “in vitro phosphorylation by PKA” value [2] was “MBPΔII was a better substrate than MBP, and Ser^8 was the major phosphorylation site”, the in vitro phosphorylation [3] was “Bovine cPKA phosphorylates GPBP in vitro (not shown)” and the “in vitro phosphorylation by PKA” value [4] was “MBPΔII was a better substrate than MBP, and Ser^8 was the major phosphorylation site”. For the same molecule, the “^32P incorporation … by PKA” value (rGPΔIII/IV/V) was “The alternative forms incorporated ^32P more efficiently than the primary GP antigen”, the “^32P incorporation … by PKA” value [5] was “all four recombinant antigens were phosphorylated but to very different extents” and the “^32P incorporation … by PKA” value [6] was “At 150 mM ATP, the major ^32P incorporation occurred in the 27-kDa conformer”.

B1: FLAG-tagged recombinant GPBP (rGPBP) (protein)
chain: DYKDDDDKMSDNQSWNSSGSEEDPETESGPPVERCGVLSKWTNYIHGWQDRWVVLKNNALSYYKSEDETEYGCRGSICLSKAVITPHDFDECRFDISVNDSVWYLRAQDPDHRQQWIDAIEQHKTESGYGSESSLRRHGSMVSLVSGASGYSATSTSSFKKGHSLREKLAEMETFRDILCRQVDTLQKYFDACADAVSKDELQRDKVVEDDEDDFPTTRSDGDFLHSTNGNKEKLFPHVTPKGINGIDFKGEAITFKATTAGILATLSHCIELMVKREDSWQKRLDKETEKKRRTEEAYKNAMTELKKKSHFGGPDYEEGPNSLINEEEFFDAVEAALDRQDKIEEQSQSEKVRLHWPTSLPSGDAFSSVGTHRFVQKPYSRSSSMSSIDLVSASDDVHRFSSQVEEMVQNHMTYSLQDVGGDANWQLVVEEGEMKVYRREVEENGIVLDPLKATHAVKGVTGHEVCNYFWNVDVRNDWETTIENFHVVETLADNAIIIYQTHKRVWPASQRDVLYLSVIRKIPALTENDPETWIVCNFSVDHDSAPLNNRCVRAKINVAMICQTLVSPPEGNQEISRDNILCKITYVANVNPGGWAPASVLRAVAKREYPKFLKRFTSYVQEKTAGKPILF
With B1 the “^32P incorporation, in situ phosphorylation on blot” value [7] was “GPBP preferentially phosphorylated MBP”, the “^32P incorporation, in vitro phosphorylation” value [8] was “no appreciable ^32P-incorporation was observed in the bovine-derived substrate” and the “conformers and oligomers after DTT consumption, Western blot” value [8] was “during DTT consumption GPBP catalyzed specific conformational isomerization reactions over the 27-kDa conformer”. The “disruption of disulfide-based aggregates, Western blot” value [9] was “GPBP and, to a lesser extent GPBPΔ26 disrupted disulfide-based high molecular weight aggregates characteristic of recombinant material representing human α3(IV)NC1 produced in bacteria”, the “^32P incorporation, in vitro phosphorylation” value (GPpep1) was “Affinity-purified rGPBP phosphorylates all human-derived material to a different extent” and the “monomeric Mab3-reactive material after oligomerization assay” value [10] was “the addition of GPBP to the phosphatase-treated samples resulted in a further reduction in the levels of monomeric material reactive with Mab3”. The “^32P incorporation, in vitro phosphorylation” value (GPpep1Ala^9) was “The lower ^32P incorporation displayed by GPpep1Ala9 when compared with GPpep1”, the “^32P incorporation, in vitro phosphorylation” value [11] was “Affinity-purified rGPBP phosphorylates all human-derived material to a different extent” and the “^32P incorporation, in vitro phosphorylation” value [12] was “Affinity-purified rGPBP phosphorylates all human-derived material to a different extent”. For the same molecule, the “^32P incorporation, in situ phosphorylation on blot” value [13] was “little phosphorylation of MBPΔII was observed”.

KGKRGDSGSPATWTTRGFVFT [GPpep1]: binds [14].

B2: 22-25-kDa conformers of the native human α3(IV)NC1 domain (other)
chain: GLKGKRGDSGSPATWTTRGFVFTRHSQTTAIPSCPEGTVPLYSGFSFLFVQGNQRAHGQDLGTLGSCLQRFTTMPFLFCNVNDVCNFASRNDYSYWLSTPALMPMNMAPITGRALEPYISRCTVCEGPAIAIAVHSQTTDIPPCPHGWISLWKGFSFIMFTSAGSEGTGQALASPGSCLEEFRASPFLECHGRGTCNYYSNSYSFWLASLNPERMFRKPIPSTVKAGELEKIISRCQVCMKKRH
modifications: phosphoserine, highest Ser(P) content among the conformers; sites not given
notes: also called 22-25-kDa polypeptides; 22-kDa conformer
B2: binds [15].
